Experimental data as given in patent US20250186597A1 (BRIGHT PEAK THERAPEUTICS, published 2025).
“And” between values parts separate entries of the source, which are not always exact repeats. Equal values may be shown once.

Target: T1, IL-18R on HEK-Blue IL18R reporter cells (InvivoGen, #hkb-hmi118) (UniProt Q13478 19-541; O95256 20-599, limits assumed)
T1 sequence (looked up) 1: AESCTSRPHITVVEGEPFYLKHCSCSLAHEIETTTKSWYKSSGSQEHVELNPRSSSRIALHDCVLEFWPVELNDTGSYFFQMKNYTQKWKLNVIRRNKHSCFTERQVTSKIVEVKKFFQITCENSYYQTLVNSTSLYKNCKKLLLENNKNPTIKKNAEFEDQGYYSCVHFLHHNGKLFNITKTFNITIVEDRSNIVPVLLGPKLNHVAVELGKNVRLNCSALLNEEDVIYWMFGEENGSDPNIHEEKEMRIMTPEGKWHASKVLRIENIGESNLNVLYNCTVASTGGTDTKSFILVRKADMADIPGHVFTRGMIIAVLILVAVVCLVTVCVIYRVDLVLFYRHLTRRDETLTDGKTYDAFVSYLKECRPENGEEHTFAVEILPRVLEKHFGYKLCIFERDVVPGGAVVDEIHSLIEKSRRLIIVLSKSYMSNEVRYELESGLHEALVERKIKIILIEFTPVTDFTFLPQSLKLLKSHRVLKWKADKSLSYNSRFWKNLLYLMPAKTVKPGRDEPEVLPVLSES
T1 sequence (looked up) 2: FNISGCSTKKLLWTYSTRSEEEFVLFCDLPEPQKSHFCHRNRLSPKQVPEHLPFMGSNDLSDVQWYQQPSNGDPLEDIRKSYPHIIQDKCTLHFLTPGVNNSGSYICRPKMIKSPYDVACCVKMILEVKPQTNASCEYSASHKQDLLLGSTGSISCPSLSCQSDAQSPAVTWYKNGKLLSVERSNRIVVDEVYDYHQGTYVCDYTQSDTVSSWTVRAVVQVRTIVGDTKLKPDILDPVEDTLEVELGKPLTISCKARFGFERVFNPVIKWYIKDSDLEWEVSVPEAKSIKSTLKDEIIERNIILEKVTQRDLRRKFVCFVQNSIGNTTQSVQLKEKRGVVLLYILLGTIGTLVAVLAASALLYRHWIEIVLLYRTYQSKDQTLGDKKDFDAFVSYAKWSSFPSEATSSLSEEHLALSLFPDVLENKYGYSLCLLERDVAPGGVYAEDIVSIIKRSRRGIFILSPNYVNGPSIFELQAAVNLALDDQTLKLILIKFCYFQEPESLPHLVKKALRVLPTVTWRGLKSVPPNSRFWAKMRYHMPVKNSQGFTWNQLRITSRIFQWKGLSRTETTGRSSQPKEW
Assay: cell-based or functional assay

| Binder | EC50, HEK-Blue IL18R reporter assay |
| --- | --- |
| IL-18 polypeptide of SEQ ID NO: 34 (E06K, K53A, S55A) (ligand) YFGKLKSKLSVIRNLNDQVLFIDQGNRPLFEDMTDSDCRDNAPRTIFIISMYADAQPRGMAVTISVKCEKISTLSCENKIISFKEMNPPDNIKDTKSDIIFFQRSVPGHDNKMQFESSSYEGYFLACEKERDLFKLILKKEDELGDRSIMFTVQNED | 272 pM |
| IL-18 polypeptide of SEQ ID NO: 42 (E06K, K53A, S55A, T63A) (ligand) YFGKLKSKLSVIRNLNDQVLFIDQGNRPLFEDMTDSDCRDNAPRTIFIISMYADAQPRGMAVAISVKCEKISTLSCENKIISFKEMNPPDNIKDTKSDIIFFQRSVPGHDNKMQFESSSYEGYFLACEKERDLFKLILKKEDELGDRSIMFTVQNED | 0.79 pM |
| IL-18 polypeptide of SEQ ID NO: 50 (E06K, K53A, T63A) (ligand) YFGKLKSKLSVIRNLNDQVLFIDQGNRPLFEDMTDSDCRDNAPRTIFIISMYADSQPRGMAVAISVKCEKISTLSCENKIISFKEMNPPDNIKDTKSDIIFFQRSVPGHDNKMQFESSSYEGYFLACEKERDLFKLILKKEDELGDRSIMFTVQNED | 1.77 pM |
| IL-18 polypeptide of SEQ ID NO: 54 (E06K, K53A, C38S, C68S, C76S, C127S, K70C) (ligand) YFGKLKSKLSVIRNLNDQVLFIDQGNRPLFEDMTDSDSRDNAPRTIFIISMYADSQPRGMAVTISVKSECISTLSSENKIISFKEMNPPDNIKDTKSDIIFFQRSVPGHDNKMQFESSSYEGYFLASEKERDLFKLILKKEDELGDRSIMFTVQNED | 9.12 pM |
| IL-18 polypeptide of SEQ ID NO: 56 (E6K, K53A, C38S, C76S, C127S) (ligand) YFGKLKSKLSVIRNLNDQVLFIDQGNRPLFEDMTDSDSRDNAPRTIFIISMYADSQPRGMAVTISVKCEKISTLSSENKIISFKEMNPPDNIKDTKSDIIFFQRSVPGHDNKMQFESSSYEGYFLASEKERDLFKLILKKEDELGDRSIMFTVQNED | 3.73 pM |
| IL-18 polypeptide of SEQ ID NO: 57 (E6K, C38S, K53A) (ligand) YFGKLKSKLSVIRNLNDQVLFIDQGNRPLFEDMTDSDSRDNAPRTIFIISMYADSQPRGMAVTISVKCEKISTLSCENKIISFKEMNPPDNIKDTKSDIIFFQRSVPGHDNKMQFESSSYEGYFLACEKERDLFKLILKKEDELGDRSIMFTVQNED | 0.86 pM and 0.53 pM |
| IL-18 polypeptide of SEQ ID NO: 62 (E6K, C38A, K53A, C127A) (ligand) YFGKLKSKLSVIRNLNDQVLFIDQGNRPLFEDMTDSDARDNAPRTIFIISMYADSQPRGMAVTISVKCEKISTLSCENKIISFKEMNPPDNIKDTKSDIIFFQRSVPGHDNKMQFESSSYEGYFLAAEKERDLFKLILKKEDELGDRSIMFTVQNED | 0.17 pM |
| IL-18 polypeptide of SEQ ID NO: 60 (E6K, C38Q, K53A) (ligand) YFGKLKSKLSVIRNLNDQVLFIDQGNRPLFEDMTDSDQRDNAPRTIFIISMYADSQPRGMAVTISVKCEKISTLSCENKIISFKEMNPPDNIKDTKSDIIFFQRSVPGHDNKMQFESSSYEGYFLACEKERDLFKLILKKEDELGDRSIMFTVQNED | 0.203 pM |
| IL-18 polypeptide of SEQ ID NO: 59 (E6K, C38A, K53A) (ligand) YFGKLKSKLSVIRNLNDQVLFIDQGNRPLFEDMTDSDARDNAPRTIFIISMYADSQPRGMAVTISVKCEKISTLSCENKIISFKEMNPPDNIKDTKSDIIFFQRSVPGHDNKMQFESSSYEGYFLACEKERDLFKLILKKEDELGDRSIMFTVQNED | 0.268 pM |
| IL-18 polypeptide C143 (V11I, C38A, K53A, C76A, C127A) (ligand) YFGKLESKLSIIRNLNDQVLFIDQGNRPLFEDMTDSDARDNAPRTIFIISMYADSQPRGMAVTISVKCEKISTLSAENKIISFKEMNPPDNIKDTKSDIIFFQRSVPGHDNKMQFESSSYEGYFLAAEKERDLFKLILKKEDELGDRSIMFTVQNED | 0.98 pM |
| IL-18 polypeptide C144 (V11I, C38A, K53A, T63A, C76A, C127A) (ligand) YFGKLESKLSIIRNLNDQVLFIDQGNRPLFEDMTDSDARDNAPRTIFIISMYADSQPRGMAVAISVKCEKISTLSAENKIISFKEMNPPDNIKDTKSDIIFFQRSVPGHDNKMQFESSSYEGYFLAAEKERDLFKLILKKEDELGDRSIMFTVQNED | 0.17 pM |
| IL-18 polypeptide C145 (V11I, C38A, K53A, S55A, C76A, C127A) (ligand) YFGKLESKLSIIRNLNDQVLFIDQGNRPLFEDMTDSDARDNAPRTIFIISMYADAQPRGMAVTISVKCEKISTLSAENKIISFKEMNPPDNIKDTKSDIIFFQRSVPGHDNKMQFESSSYEGYFLAAEKERDLFKLILKKEDELGDRSIMFTVQNED | 3.63 pM |
| IL-18 polypeptide C146 (SEQ ID NO: 68; V11I, C38A, M51G, K53A, C76A, C127A) (ligand) YFGKLESKLSIIRNLNDQVLFIDQGNRPLFEDMTDSDARDNAPRTIFIISGYADSQPRGMAVTISVKCEKISTLSAENKIISFKEMNPPDNIKDTKSDIIFFQRSVPGHDNKMQFESSSYEGYFLAAEKERDLFKLILKKEDELGDRSIMFTVQNED | 0.8 pM |
| IL-18 polypeptide C147 (V11I, C38A, K53A, D54A, C76A, C127A) (ligand) YFGKLESKLSIIRNLNDQVLFIDQGNRPLFEDMTDSDARDNAPRTIFIISMYAASQPRGMAVTISVKCEKISTLSAENKIISFKEMNPPDNIKDTKSDIIFFQRSVPGHDNKMQFESSSYEGYFLAAEKERDLFKLILKKEDELGDRSIMFTVQNED | 1 pM |
| IL-18 polypeptide C148 (F2A, V11I, C38A, K53A, C76A, C127A) (ligand) YAGKLESKLSIIRNLNDQVLFIDQGNRPLFEDMTDSDARDNAPRTIFIISMYADSQPRGMAVTISVKCEKISTLSAENKIISFKEMNPPDNIKDTKSDIIFFQRSVPGHDNKMQFESSSYEGYFLAAEKERDLFKLILKKEDELGDRSIMFTVQNED | 7.28 pM |
| IL-18 polypeptide C149 (V11I, E31A, C38A, K53A, C76A, C127A) (ligand) YFGKLESKLSIIRNLNDQVLFIDQGNRPLFADMTDSDARDNAPRTIFIISMYADSQPRGMAVTISVKCEKISTLSAENKIISFKEMNPPDNIKDTKSDIIFFQRSVPGHDNKMQFESSSYEGYFLAAEKERDLFKLILKKEDELGDRSIMFTVQNED | 6.6 pM |
| IL-18 polypeptide C150 (V11I, T34A, C38A, K53A, C76A, C127A) (ligand) YFGKLESKLSIIRNLNDQVLFIDQGNRPLFEDMADSDARDNAPRTIFIISMYADSQPRGMAVTISVKCEKISTLSAENKIISFKEMNPPDNIKDTKSDIIFFQRSVPGHDNKMQFESSSYEGYFLAAEKERDLFKLILKKEDELGDRSIMFTVQNED | 0.7 pM |
| IL-18 polypeptide C151 (V11I, D35A, C38A, K53A, C76A, C127A) (ligand) YFGKLESKLSIIRNLNDQVLFIDQGNRPLFEDMTASDARDNAPRTIFIISMYADSQPRGMAVTISVKCEKISTLSAENKIISFKEMNPPDNIKDTKSDIIFFQRSVPGHDNKMQFESSSYEGYFLAAEKERDLFKLILKKEDELGDRSIMFTVQNED | 13.1 pM |
| IL-18 polypeptide C152 (V11I, S36A, C38A, K53A, C76A, C127A) (ligand) YFGKLESKLSIIRNLNDQVLFIDQGNRPLFEDMTDADARDNAPRTIFIISMYADSQPRGMAVTISVKCEKISTLSAENKIISFKEMNPPDNIKDTKSDIIFFQRSVPGHDNKMQFESSSYEGYFLAAEKERDLFKLILKKEDELGDRSIMFTVQNED | 0.25 pM |
| IL-18 polypeptide C153 (V11I, D37A, C38A, K53A, C76A, C127A) (ligand) YFGKLESKLSIIRNLNDQVLFIDQGNRPLFEDMTDSAARDNAPRTIFIISMYADSQPRGMAVTISVKCEKISTLSAENKIISFKEMNPPDNIKDTKSDIIFFQRSVPGHDNKMQFESSSYEGYFLAAEKERDLFKLILKKEDELGDRSIMFTVQNED | 14.1 pM |
| IL-18 polypeptide C154 (V11I, E31A, D37A, C38A, K53A, C76A, C127A) (ligand) YFGKLESKLSIIRNLNDQVLFIDQGNRPLFADMTDSAARDNAPRTIFIISMYADSQPRGMAVTISVKCEKISTLSAENKIISFKEMNPPDNIKDTKSDIIFFQRSVPGHDNKMQFESSSYEGYFLAAEKERDLFKLILKKEDELGDRSIMFTVQNED | 11.9 pM |
| IL-18 polypeptide C155 (V11I, C38A, D40A, K53A, C76A, C127A) (ligand) YFGKLESKLSIIRNLNDQVLFIDQGNRPLFEDMTDSDARANAPRTIFIISMYADSQPRGMAVTISVKCEKISTLSAENKIISFKEMNPPDNIKDTKSDIIFFQRSVPGHDNKMQFESSSYEGYFLAAEKERDLFKLILKKEDELGDRSIMFTVQNED | 0.52 pM |
| IL-18 polypeptide C156 (V11I, C38A, N41A, K53A, C76A, C127A) (ligand) YFGKLESKLSIIRNLNDQVLFIDQGNRPLFEDMTDSDARDAAPRTIFIISMYADSQPRGMAVTISVKCEKISTLSAENKIISFKEMNPPDNIKDTKSDIIFFQRSVPGHDNKMQFESSSYEGYFLAAEKERDLFKLILKKEDELGDRSIMFTVQNED | 11.7 pM |
